Experimental findings from a protein production outcome set (Wang et al. 2014) are described below.
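Further: failed if final PepcDB status was selected cloned or expressed and not failed if soluble or beyond.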

The data set can be described thus: label from the status in PepcDB records.
Take “MYSMSMGERGEAPDGMSGVIRYESLLAARTMAQRQPKKSAGCADSVESFRNPKPKPRFDKDVFCKTSAIRRLRSDFLHGDGSRGTGRHRAVARGPDGVRLHPAGRQRPNLPVASSASRTRHDQGSGRMSVVSAIIGTAERVPLPDVVIRAAIQRLCSRTATRISALGADDEAAFAGRMMLRPIAEDVDAANAGHDEAPASFIAQALGPNRKYSSCFYTTDATTLREAEEEALRQTVAHAGLADGQTILELGCGWGSLSLWTARQFPHAKVTAVSNSQGQRAYVEEQARLRGLLNLRVVTADMNVFAPEGQFDRIVSVEMFEHVMNWRKLMTRLRSWLAPEGRLFMHIVTHRSGSHLFDRANREDWIAQHVFTGGLMASHHLVRQFDDIFTVEKEWCWSGTHYQRTANDWLANFDAHRDAIEASLRNVHGDETALWMRRWRWFFLATSGLFGYAGGTEWGVSHYRMKAADEGVS”: the protein production entry is “failed”.
As for “MYSPIPPSLFQQIQPAYCGQEFILLRDNEEYKEIIVQAGRTYEISLMVESENSYIAWDFSLTQGKITMVIIFKTKYVTVNHLIAFSDD”, the entry is “failed”.
Consider “MYTKTKASISALLILITITLSSCSGTKNKDIYSRKNSNAAHTVATIGYDNKTYVSLKEAFKSVGGKCTLNGEGAIASKGKDIIKVSASSSTAYLNSSKIAMSANPKLKNNDIYVPMDFLNQVMDARITYSNGKLNIQTELPLKYTKAFNIKYLKGGIKKITDGNNKTVILVPKNKTVPAEYKNETVITYPVNNVLVSSATQGSLLRPLDEIKSIKTVTLKENEWEIDEIKSLLNDNKITYIGDTTSPDFEKISSSKPDVAILYGGSYGLNNMMKKFDELHINYTSDNEYLEEDPLGRLEWIKFLSAFYDKEDKAENYFNQQVSKVMATENKVSSLKKPKVAFGMVDNGKVYIPAKNSYAAKMVDMAGGDYIFKDLNNKSGYITLEDFYSKSKDADVLIYSSSKEYTPSLKSMLSAAPILKTIKPVKNKKVWCFGKDYYQAIDKTDEIIEDLASIFHPESFKGYKIKHYSHY”, for which the protein production entry is “failed”.
Turning to “MYTNRWEGLDEFVAVAECGQFTAAALRLGVSSSHVSRQIVRLEERLQTRLLYRSTRKVALTEAGQTFLHHCQRLQDGREEALRAVGDLASEPKGLLRMTCAVAYGERFITPLVTRFMELYPQLRVDIELSNDTLDLVHEGMDLAIRLGRLQDSRMVATRLAPRQMYLCASPSYLERYGRPHSLSELSRHNCLIGGSDTWQLQQNGREFSQRVQGNWRCNSGQAVLDAALQGVGLCQLPDYYVQKHLKEGALVSLLEAHQPPNTAVWALYPQQRHLSPKVRKLVDYLKEGLAMQDEYRQ”, the protein production entry is given as “failed”.
In the case of “MYVLIGGAGLIGQQLARQVLDQGHTVAVIDQDPQVCKMVRDRLGAMAFEGSAVNTDILLEAGICRADAVAAVLRQDALNLALVTLACHYGVSRIISRISQQDFIEPMRLAGAHHIISTVDLVVSTMVNAIECPQVESMLHFEQGQIEVFKLTLDSQSPVIGRSVAAIAQDRNFPSSSLIIGYQSHPQADLVIPSGNTVLEANATVLLATKPGLVQSLVNFLMPSLFSPLEHHHHHH”, the protein production entry was “failed”.
As for “MYVLVSSPFHYKQFTKFTIFSVFAGFSFIQNELTTYWFFILLFRQEITLFGLGVIARPLVRVFVSYLMGYISDKYDRAKLFYITRGISGILLFPLTFAFIYHSIPLIFGIYYIRTIIVELSNNVGYVAYYAVVPEQVRAKAIFYIRIISMASRVASGAVWYLIYQLISAYDLFLAGILGLIGLALLKGFNIGGGSKRVKLSTAIDFFRKDERIRGIILLYSVTDGLTYSINYLLPLLIIVYHGTEEIYSLSQTVLYGILVIASFVMTRIKDPIKIVSTYILSGFLFYLVLLYPSPYVLLISVLLYGFGSGIVENYVMATIKQSVGDEFLGSVLGLDVLVTSSVEIFLILLGQYLITINVVYYIIVGIVGMSLVLISWLLHPKLKDIKL”, the entry is “failed”; as for “MYVTRRLSEYQKKPSELKLLPPEGPNSGIMVIQDEESQATCCFGSCYEGRLKGLPFPQNVKLNAAYTSGGGEHQTTHLTPVVFIPVLDQPLSSNLYYVLQRRGKHTGKASASATEEERVSSCFCFSYIPDAKPQEADPYDIYQQFEIHQRRSSSRYYSATSVASDGVPPNYLKRKDWWVSYSTSHDFGLRDDAKGINTKLRLDSELTSLGKSIEIGKWYVPFIFVMEGDVKDQMNKSTFYSVTLQQRWEEVFFCENIGNEHFEVVVDVDVETESVKLEGQETNLREDSGDGVVWFSVLRDEKDDKKIGLGSVVVERMKWEEERFGWLNEAGERSNIKRSERFEGGSSHWKSYRCYVLIESFELTRMDGSLVLTYEFRHVDKLKSKWD”, “failed”; as for “NDNSPRFEKSVYEADLAENSAPGTPILQLRAADLDVGVNGQIEYVFGAATESVRRLLRLDETSGWLSVLHRIDREEVNQLRFTVMARDRGQPPKTDKATVVLNIKDENDNVP”, “not failed”.
Consider “NENPDKPTDDVNYNMNEPRLASTLRGGLIIEGNVEQRLKPLQIDFYSQMTVDGGGWGTKNYIQDDEWNNLVWEEYLKQIASINIVIRSLTEKDKDAYANTIAFARIWRVYVHTLAADKFGPMPFPAYEIVEANPPYKSLKDIYDEYFRELDAAINGFNDSAQPIFSDAGIDLIYKNDVSKWKRFANSLRLRLAVRLTEVDQEKCIAEANAAISSPAGLISDKADNAYMPPKADGSWGQDYNYTMFQITWSGPICMSKSVEKLVTNIGGVAWPQGVVNQTSGVAVSSVHPEKVDPRAPKIFQPGIENGDWKGLVYGPKAEEANTGIYQSKQCAELGFIIKDGYPYKSRPYDLFLSEEVHFLKAELYARGFIAGDAKSEYEAGVRASFATWGVTSEVDDYLTSTEKNEAGTSARYDDQQGAGNTALEKIITQKYIAGIPDLAQEGWNDKRRLNLPRLDVAVYRDQAVYNNNDKDILKSANFIKRMRYPTKESLINATEYEKGKSMLGGKGDIVSTPLWWDKNSNYCTSSK”, for which the protein production result is on record as “not failed”.
On to “NGVWVIGEQREGKINPVTIELIGEGRKLADQLGKELAVVIAGYEVEKEVKELLHYSVDKVYYINDPLLKDFTTDGYAISIANLIERKKPEVVLVGATSIGRDIAPRIAGKVGTGLTADCTKLEIDSTDNKLLQTRPAFGGNLMATIVCPKNRPQMSTVRPGVMAKAVRNESETGILEVVTPELTEKMIRTRLVEILPQEKKSVN”, for which the protein production entry is reported as “not failed”.
For the sequence “NGYTMQRDNQKTLAVYMFEEINRDVEYLSGRLSEKELKDKYRYYGRGYVRITDKDGQVITYEDGSVQDKTVFLTNEGANKLGWKLEFLIDEKMFEEEILEKQN”, the protein production entry is listed as “not failed”.
As to “NIVEWLGDRSLAVLAAIANKFRGSEQETLEPQLDEFVEDKVSTKHVEDDQQDDETLPHLTAYEVEEPKEKAAVHEYPIYMPQAKSETSAVKPTPEPQPQRVAAVNATPTYVEPEPQLKAVSTDNVDPMVERTKQLNVTIEELEAAAQQADDWASEEQTSQSYADTNAVYQEQVQAKHEEVVEHDTPQLESSYAEYAQFAAQQEQQLHVEPTPHEEPVIDTRALDDITDHAEPSEHIEPTISDFDVVDEEETYVAPQPQSRSPEPQPMVQPQSVSQIQPEQAPEPSVAFEPAPQEVEVEEVQDGDQDVAAFQSMVSSAQAKVAATQNPFLMKQEQNLPVPEEPLPTLELLYHPEKRENFIDREALEQVARLVESKLADYKIKADVVGIYPGPVITRFELDLAPGVKVSRISGLSMDLARALSAMAVRVVEVIPGKPYVGLELPNMSRQTVYLSDVISSPQFEQAKSPTTVVLGQDIAGEAVIADIAKMPHVLVAGTTGSGKSVGVNVMILSMLYKASPEDLRFIMIDPKMLELSIYEGIPHLLAEVVTDMKDASNALRWCVGEMERRYKLMSALGVRNVKGFNEKLKMAAEAGHPIHDPFWQEGDSMDTEPPLLEKLPYIVVVVDEFADLMMVVGKKVEELIARLAQKARAAGIHLILATQRPSVDVITGLIKANIPTRVAFTVSTKTDSRTILDQGGAESLLGMGDMLYLPPGSSHTIRVHGAFASDDDVHAVVNNWKARGKPNYIDEIISGDQGPESLLPGEQMESDEEMDPLFDQVVEHVVQSRRGSVSGVQRRFKIGYNRAARIVEQLEAQGIVSAPGHNGNREVLAPAPPKD”, the protein production entry is on record as “failed”.
Turning to “NLKDVYVSIADYEGDEETAGFQEGVSMEVLERNPNGWWYCQILDGVKPFKGWVPSNYLEKKN”, the protein production result was “not failed”.
With “NPVILADLDDTLFQTRRKMVDELALAPYKTGALDRSLAPRSFMTQEQAMLVDWMLEHADLIPVTARGTEEMSRVTIPFHSWAITTHGAVVLTPEKVADEQWQHHITQSLTPYKQPLLRLQQSITQLMAERNIDGWARINYEYDDLPIYLVMKHNDSARLDELYAIGDEIEKIFSTKGFYIHRNSNNIAWLPEPIEKGKAVTYLLNKLKAERGVFPVIGFGDSLSDHRFMKLCN”, the protein production entry is recorded as “not failed”.
Take “NQLLGMHQIEKEMTQYFGIQRCIVVAGDSDIQKKVLSDFGDVLTNTLNLLLPNGENTIAVMGGTTMAMVAENMGSLETEKRHNLFVPARGGIGEAVSVQANSISAVMANKTGGNYRALYVPEQLSRETYNSLLQEPSIQEVLTLISHANCVVHSIGRALHMAARRKMSDDEMVMLKQKNAVAESFGYFFDEEGKVVYKIPRIGLQLKNLQEIPYVVAIAGGKTKAKAIRAYMKNAPKQTWLITDEAAANEILK”: the protein production entry is listed as “not failed”.
For “NQLLTQQANEDGLTKLFNRRYIDQKLDSMVAWHGRHHMPMAMILLDVDFFKPFNDNYGHIEGDRCLQAIANQLKATFCRSGEYVGRYGGEEFVVLLSSTDAQTAEREAERIQEAMYFLDYQHEFSSVANRVTVSQGVFVFQPTGKENQADLYATADRALYTSKSLGRNTYTMVNAS”, the protein production entry is given as “not failed”.
On to “NRDSLFNDPNAPVLGNPEGDVTVVEFFDYNCPYCRRAMAEVQGLVDADPNVRLVYREWPILGEGSDFAARAALAARQQGKYEAFHWALMGMSGKANETGVLRIAREVGLDTEQLQRDMEAPEVTAHIAQSMALAQKLGFNGTPSFVVEDALVPGFVEQSQLQDAVDRARKAA”, for which the protein production entry is recorded as “not failed”.
For the sequence “NRLPDAVVTVYPTFNSLQMLAHALRMPYHDMRIVSLTGRPWHEFDRALIERAEKIGILTDHEHTPSAIAMRMLDYGYEDYTMSVGTRMGNPQEQCLDTFSLREAADRDFERPNCVILSATRPFVCSRAPLGLSESAFMPLNGRTKMITKMPFRLVSLSCLELHRASSFWDIGFCTGSVSIEAKLNFPHLHITAFEIRPEGAELMPVNSRRFGAPGIAYRIGDFMEEDISSLAPPDAVFIGGHGGRLVEMIAKVHSVMTKGGLLVFNSVSEESRHLFLTGIEACGMELLSSIRLTADGNNPIDILQARKKE”, the protein production result is “not failed”.
In the case of “NSGKRLIQRSIERALDFRKEVQRLREESDGWFFDIWQPEAVDKAECWPVAPGEDWHGFKDADADHMYLDPVKVTILTPGMDEQGNMDEEGIPAALVAKFLDERGVVVEKTGPYNLLFLFSIGIDKTRAMGLLRGLTEFKRAYDLNLRVKNMLPDLYAEDPDFYRNMRIQDLAQGIHRLIRQHQ”, the protein production result is on record as “failed”.
Regarding “NTLRELRLFLRDVTKRLATDKRFNIFSKPVSDYLEVIKEPMDLSTVITKIDKHNYLTAKDFLKDIDLICSNALEYNPDKDPGDKIIRHRACTLKDTAHAIIAAELDPEFNKLCEEIKE”, the protein production entry was “not failed”.
“PATCPIVPGQEMIIEISKGRSGLGLSIVGGKDTPLNAIVIHEVYEEGAAARDGRLWAGDQILEVNGVDLRNSSHEEAITALRQTPQKVRLVVYRDEAHYRDEE”: the protein production result is reported as “not failed”.
Turning to “PCYDNTFANTCAECQQLIGHDSRELFYEDRHFHEGCFRCCRCQRSLADEPFTCQDSELLCNDCYCSAFS”, the protein production entry was “not failed”.
Regarding “PDQCKPPQVTCRSATCAQVNWEVPLSNGTDVTEYRLEWGGVEGSMQICYCGPGLSYEIKGLSPATTYYCRVQALSVVGAGPFSEVVACVTPPS”, the protein production result is “not failed”.
For “PEAMLIVDQNGQIVFSNSRCQQLFGYDAKAMLALQIETLLPEELRHLHTGERLDFLREGRDRPMASARHVRALKSDGGEFVAEIALSILPSDFD”, the protein production result was “failed”.
